The target of the experiment is T1, fibroin sheet (Bombyx mori, UniProt P05790).
T1 construct: purchased Sigma-Aldrich
Description: Color intensity of modified fibroin sheet after glucose/HRP/4-aminoantipyrine chromogenic reaction. It counts as biochemical. Particulars: fibroin sheet adsorbed from 0.3 mg/mL solution, 10 mM glucose, 1000 U/mL HRP, 5 minutes, ImageJ, average of five sheets. The protocol: After methanol was added to the collected sheet, methanol was removed and dried overnight. The measurement of the weight of the fibroin sheet cut into 20 mm×40 mm size confirmed that it was 1.25 μg/mm^2 fibroin sheet. Fibroin sheets of 5 mm×5 mm size were cut and added to an aqueous solution of 0.3 mg/mL Compound 1 (0.2 mL) and allowed to stand for 10 minutes. Fibroin sheets were immersed in PBS buffer (1 mL, pH7.4) containing 0.05 wt % Tween20 for 15 minutes×2 and in PBS (1 mL, pH7.4) for 1 minute. The modified fibroin sheet was obtained by drying at room temperature.
A fibroin sheet adsorbed with Compound 6 was prepared in the same manner as Manufacturing Example 2 except that 0.3 mg/mL Compound 6 aqueous solution was used instead of the aqueous solution of Compound 1.
1.5 μL of phosphate buffered saline (pH7.4) containing 10 mM glucose, 1000 U/mL HRP, 3.7 mM 4-aminoantipyrine, 6.4 mM sodium 3-[ethyl(m-tolyl) amino]-2 hydroxy-1 propanesulfonate was added dropwise to a fibroin sheet modified with Compound 6 obtained in Manufacturing Example 12 and allowed to stand in a wet box for 5 minutes. […] After drying the sheet, the sheet was read by a scanner to obtain image data. […] Five sheets were prepared and subjected to the same evaluation, and the average value of color intensity (Color Intensity, hereinafter CI value) was calculated. The calculated CI value was 54.5.

Experimental findings from patent US20250361264A1, “PROTEIN MODIFYING REAGENT” (CANON KABUSHIKI KAISHA, priority 2023, published 2025) are described below.

B1: Compound 6: Thioflavin T acid bound to glucose oxidase (GOx); 5.6 molecules per GOx molecule (conjugate, UniProt P13006 17-605, looked up)
Glucose oxidase: LPHYIRSNGIEASLLTDPKDVSGRTVDYIIAGGGLTGLTTAARLTENPNISVLVIESGSYESDRGPIIEDLNAYGDIFGSSVDHAYETVELATNNQTALIRSGNGLGGSTLVNGGTWTRPHKAQVDSWETVFGNEGWNWDNVAAYSLQAERARAPNAKQIAAGHYFNASCHGVNGTVHAGPRDTGDDYSPIVKALMSAVEDRGVPTKKDFGCGDPHGVSMFPNTLHEDQVRSDAAREWLLPNYQRPNLQVLTGQYVGKVLLSQNGTTPRAVGVEFGTHKGNTHNVYAKHEVLLAAGSAVSPTILEYSGIGMKSILEPLGIDTVVDLPVGLNLQDQTTATVRSRITSAGAGQGQAAWFATFNETFGDYSEKAHELLNTKLEQWAEEAVARGGFHNTTALLIQYENYRDWIVNHNVAYSELFLDTAGVASFDVWDLLPFTRGYVHILDKDPYLHHFAYDPQYFLNELDLLGQAAATQLARNISNSGAMQTYFAGETIPGDNLAYDADLSAWTEYIPYHFRPNYHGVGTCSMMPKEMGGVVDNAARVYGVQGLRVIDGSIPPTQMSSHVMTVFYAMALKISDAILEDYASMQ
modifications: Thioflavin T acid conjugated, 5.6 per GOx
notes: 5.6 molecules per GOx molecule
In the case of B1, the “CI value (average color intensity)” value amounted to 54.5.

B2: GOx: glucose oxidase (manufactured by Sigma-Aldrich, G2133), unmodified comparison (protein, UniProt P13006 17-605, looked up)
Glucose oxidase: B1 Glucose oxidase
Consider B2, for which the “CI value (average color intensity)” value was determined as 30.8.
